Substrate in this data set: CC(=O)Oc1ccc([N+](=O)[O-])cc1
The experiment in a line: purified protein. As to conditions: optimal conditions (optimal pH 7.0), free enzyme. It counts as biochemical, Exiguobacterium antarcticum.

B1: EaEst2 (Exiguobacterium antarcticum) (protein)
chain: MKITLPKPFFFEGGNRAVLLLHGFTGSSADVRMLGRYLQKHGYTSLAPQYKGHAAPPEELTKTGPADWWQDVLDGYEELKAKGYDEIAVCGLSLGGVMSLRLSMHRPVKAVIPMCAPAYIKSEDVMYAGVTEYAREFKKREGKSVDEIEQEMAVFEPMPTLKDLQALLKETRDSLEDVYAPTLVVQARNDHMINTDSANIIHDGVSALQKELIWYENSGHVITLDKEKETLHQDIHEFLDGLNWSH
notes: full-length gene in pET-28a (NheI/XhoI), N-terminal 6xHis tag, E. coli BL21(DE3); monomer; catalytic triad Ser93, Asp190, His220; motif GLSLG 91-95
The term Km denotes the concentration of substrate that gives half-maximal velocity. Take B1: the Km came out at 590 µM.

These data come from PMC10418727, “Structural and Biochemical Insights into Bis(2-hydroxyethyl) Terephthalate Degrading Carboxylesterase Isolated from Psychrotrophic Bacterium Exiguobacterium antarcticum” (International Journal of Molecular Sciences, 2023).
